Test system: T1, NC(=O)C1=CN([C@@H]2O[C@H](COP(=O)(O)OP(=O)(O)OC[C@H]3O[C@@H](n4cnc5c(N)ncnc54)[C@H](OP(=O)(O)O)[C@@H]3O)[C@@H](O)[C@H]2O)C=CC1
T1 construct: full-length, 712 residues, pESC-URA MCS2, yeast (S. cerevisiae INVSc1) microsomes
Test: cytochrome c reduction, yeast microsomes
Format: biochemical, Hypericum calycinum
Settings: electron acceptor cytochrome c

Chain of HcCPR2 (Hypericum calycinum) (chain, as listed by the source): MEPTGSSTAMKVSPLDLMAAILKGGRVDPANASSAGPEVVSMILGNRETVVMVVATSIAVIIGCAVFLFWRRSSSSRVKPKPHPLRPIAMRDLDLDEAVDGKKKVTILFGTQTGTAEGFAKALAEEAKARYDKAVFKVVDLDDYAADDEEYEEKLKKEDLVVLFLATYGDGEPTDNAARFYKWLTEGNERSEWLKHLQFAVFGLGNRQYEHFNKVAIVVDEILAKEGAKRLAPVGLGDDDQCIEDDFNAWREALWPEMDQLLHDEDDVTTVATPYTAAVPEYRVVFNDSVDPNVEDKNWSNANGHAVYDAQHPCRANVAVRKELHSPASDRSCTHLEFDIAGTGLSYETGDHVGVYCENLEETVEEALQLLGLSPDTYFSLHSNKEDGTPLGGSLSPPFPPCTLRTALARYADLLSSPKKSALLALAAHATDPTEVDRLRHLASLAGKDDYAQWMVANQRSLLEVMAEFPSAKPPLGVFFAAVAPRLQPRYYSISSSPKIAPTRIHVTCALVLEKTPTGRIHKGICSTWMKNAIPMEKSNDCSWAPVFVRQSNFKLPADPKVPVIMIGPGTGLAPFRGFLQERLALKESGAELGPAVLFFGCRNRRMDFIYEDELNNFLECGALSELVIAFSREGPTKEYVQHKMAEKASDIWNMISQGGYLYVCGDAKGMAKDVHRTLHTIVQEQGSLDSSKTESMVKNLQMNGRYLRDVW

Q: For HcCPR2 (Hypericum calycinum), which Km is on record?
A: The Km was 43.9 ± 6.5 µM.
